Among the data in US20260327301 (published 2026) are Kd and EC50 values, retold here.

T1: canine IL-31 (dog)
T1 chain: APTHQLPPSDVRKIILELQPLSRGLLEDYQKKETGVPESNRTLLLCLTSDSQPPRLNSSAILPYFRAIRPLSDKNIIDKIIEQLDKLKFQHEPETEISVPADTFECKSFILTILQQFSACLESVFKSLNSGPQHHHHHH

B1: Caninized 35C9-1-H1L2 (antibody, V domains shown)
VH: EVQLVESGGDLVKPGGSLRLSCVASGFTFSSYWMSWVRQAPGKGLQWLSDIYATGSTYYANWATGRFTGSRDNAKNTLYLQMNSLTIEDTATYFCARHSSRSGIDFDLWGQGTLVTVSS
VL: EIVMTQSPASLSLSQEEKVTITCQASQSIGNYLAWYQQKPGQAPKQLIYRASTLASGVPSRFSGSGSGTDFTLTISDLECADVAVYYCQQGYDSNNVDNFFGQGTKVEIKR
B2: Caninized 35C9-1-H1L1 (antibody, V domains shown)
VH: B1 VH
VL: B1 VL with S63K, D70E
B3: 38E2-1 rabbit-derived (antibody, V domains shown)
VH: QSLEESGGRLVTPGTPLTLTCTASAFSLSGYYMGWVRQAPGKGLEYIGIIGGSSNTFYASWAKGRFTISKTPTTVDLKITSPTTEDTATYFCARHGDTDYISGTYFDLWGQGTLVTVSS
VL: AYHMTQTPASVEVPVGGTVTIKCQASQSISIYLAWYQQKPGQPPKLLIYRASTLASGVPSRFIGSGSGTEFSLTISDLECADAATYYCQQGYEDSNVESLFGGGTEVVVK
B4: Chimeric Antibody 38E2-1 (antibody, V domains shown)
VH: B3 VH
VL: AYHMTQTPASVEVPVGGTVTIKCQASQSISIYLAWYQQKPGQPPKLLIYRASTLASGVPSRFIGSGSGTEFSLTISDLECADAATYYCQQGYEDSNVESLFGGGTEVVVKR
B5: Caninized 38E2-1-H3L3 (antibody, V domains shown)
VH: EVQLVESGGDLVKPGGSLRLSCVASAFSLSGYYMGWVRQAPGKGLEWISIIGGSSNTFYASWAKGRFTISKDNSKNTLYLQMNSLRAEDTAVYFCARHGDTDYISGTYFDLWGQGTLVTVSS
VL: EIVMTQSPASLSLSQGEKVTITCQASQSISIYLAWYQQKPGQPPKLLIYRASTLASGVPSRFSGSGSGTDFSFTITSLQPEDVATYYCQQGYEDSNVESLFGQGTKVEIKR
B6: Caninized 38E2-1-H3L2 (antibody, V domains shown)
VH: B5 VH
VL: B5 VL with T76S
B7: Caninized 47C1-1-H3L3 (antibody, V domains shown)
VH: EVQLVESGGDLVKPGGSLRLSCVASGFSLSTYAMNWVRQAPGKGLEWISIIYSNGDGYYASWAKGRFTISRDNSKNTLYLQMNSLRAEDTAVYYCARGIYSQTTGYFNLWGQGTLVTVSS
VL: MDTRAPTQLLGLLLLWLPGARCEIVMTQTPASLSLSQEGKVTITCQASESIGNTLAWYQQKPGQPPKLLIYGASTLASGVPSRFSGSGSGTDFTFTINSLQPEDVATYYCQSYWSSTTTFRDTFGQGTKVEIKR
B8: Caninized 47C1-1-H2L2 (antibody, V domains shown)
VH: B7 VH with S74A
VL: B7 VL
B9: Chimeric Antibody 35C9-1 (antibody, V domains shown)
VH: QSLEESGGRLVTPGTPLTLTCTASGFSLSSYWMSWVRQAPGKGLEWIGDIYATGSTYYANWATGRFTGSKTSTTVDLTITSPTIEDTATYFCARHSSRSGIDFDLWGQGTLVTVSS
VL: AYDMTQTPASVEAAVGGTVTIKCQASQSIGNYLAWYQQKPGQPPKQLIYRASTLASGVPSRFKGSGSGTEFTLTISDLECADGATYYCQQGYDSNNVDNFFGGGTEVVVRR
B10: 35C9-1 rabbit-derived (antibody, V domains shown)
VH: B9 VH
VL: AYDMTQTPASVEAAVGGTVTIKCQASQSIGNYLAWYQQKPGQPPKQLIYRASTLASGVPSRFKGSGSGTEFTLTISDLECADGATYYCQQGYDSNNVDNFFGGGTEVVVR
B11: Chimeric Antibody 47C1-1 (antibody, V domains shown)
VH: QSVEESGGRLVTPGTPLTLTCTVSGFSLSTYAMNWVRQAPGKGLEWIGIIYSNGDGYYASWAKGRYTISKTSSTTVDLKVTSPTTEDTATYFCARGIYSQTTGYFNLWGQGTLVTVSS
VL: DIVMTQTPASVEAAVGGIVIIKCQASESIGNTLAWYQQKPGQPPKLLIYGASTLASGVSSRFKGSGSGTEVTLTISDLECADAATYYCQSYWSSTTTFRDTFGGGTEVVVKR
B12: 47C1-1 rabbit-derived (antibody, V domains shown)
VH: B11 VH
VL: DIVMTQTPASVEAAVGGIVIIKCQASESIGNTLAWYQQKPGQPPKLLIYGASTLASGVSSRFKGSGSGTEVTLTISDLECADAATYYCQSYWSSTTTFRDTFGGGTEVVVK
B13: 19D1-1 rabbit-derived (antibody, V domains shown)
VH: B9 VH with T53S, T56E, N60S, A62V, T63N, T78K
VL: B10 VL with G30S, I75M, G83A, F100L, R110K
B14: 5H4-2 rabbit-derived (antibody, V domains shown)
VH: QSLEESGGDLVKPGASLTLTCTASGFTLSSDYYMCWVRQAPGKGLELIACITTSTVGTWYASWAKGRFTISKTSSTTVTLQMTSLTAADTATYFCGREDGTYADYFNLWGPGTLVTVSS
VL: AYDMTQTPASVEVAVGGTVTIKCQASQSISSWLAWYQQKPGQRPKLLIYRASTLASGVSSRFKGSGSGTQFTLTISGVECADAATYYCQQGYRSSNLDNAFGGGTEVVVK
B15: 19C7-1 rabbit-derived (antibody, V domains shown)
VH: QSVEESGGRLVTPGTPLTLTCTVSGFSLNSYAMGWVRQAPGKGLEYIGIINSSGSTWYATWVKGRFTISKTSTTVDLKMTSVTTEDTATYFCARNRDPFYITDMDLWGQGTLVTVSS
VL: QVLTQTPSSVSAAVGGTVTINCQASQNIYSYLSWYQQKPGQPPKLLIYRASTLASGVPSRFKGSGSGTEFTLTISGVECADAATYYCQQGDSYSDVDNIFGGGTEVVVK
B16: 18E8-1 rabbit-derived (antibody, V domains shown)
VH: B3 VH
VL: B3 VL with R50K
B17: 30G5-1 rabbit-derived (antibody, V domains shown)
VH: QSLEESGGRLVTPGGSLTLTCTVSGFSLSSYAMIWVRQAPGEGLEWIGTIDPSDNTDYASWAKGRFTISKTSSTTVDLKLTSLTTEDTATYFCASHSYDDYGRDVWNLWGQGTLVTVSS
VL: IVMTQTPSSKSVPVGDTVTINCQASQSVDNNNDLSWYQQKPGQPPKLLIYYTSSLPSGVPSRFKGSGSGTQFTLTISDLECDDAATYYCVGYKSSTTDATAFGGGTEVMVK
B18: 30A11-1 rabbit-derived (antibody, V domains shown)
VH: QEQLKESGGGLVTPGGTLTLTCTASGFTISGYYMNWVRQAPGKGLEWIGFIYSPSTTYYANWAKGRFTISKTSTTVDLKITSPTTEDTATYFCARGHTTEIRLDLWGQGTLVTVSS
VL: AVLTQTPSPVSAAVGGTVSISCQSSESVYKNNRLSWFQQKPGQPPKLLIFDASTLASGVSSRFKGSGSGTQFTLTISGVQCDDAATYYCLGEFRDSSDNSFGGGTEVVVK
B19: 44B4-1 rabbit-derived (antibody, V domains shown)
VH: QSLEESGGRLVTPGTPLTLTCTASGFSLSNSYMGWVRQAPGKGLEYIGFIDTGGTTYYASWAKGRFTISRTSTTVDLKMTSPTTEDTATYFCAKGPDDYFFNLWGQGTLVTVSS
VL: DIVMTQTPASVEAAVGGTITINCQASESISSWLAWYQQKPGQPPKLLIYKASTLESGVPSRFKGSGSGTEFTLTISGVQCADAATYYCQVYYFSYNSYNFFGGGTEVVVK

Substitutions are numbered along the chain they refer to.

For one test, the target named is T1, canine IL-31. Nature of the test: BLI. (In general: Biolayer interferometry detects binding as a change in optical thickness at a sensor tip.)
For the molecule B1, the Kd was 389 nM.

Turning to B2, the Kd came to 495 nM.

As for B3, the Kd came to 0.815 nM.

On to B4, for which binding was characterised by a dissociation constant (Kd) of 2.49 nM.

Molecule B5 registered a Kd of 5.35 nM.

As for B6, the Kd was determined as 8.04 nM.

As to B7, binding was put at a Kd of 15.5 nM.

In the case of B8, the Kd came out at 15.1 nM.

Consider B9, for which the Kd came out at 11.9 nM.

In the case of B10, the Kd was found to be 12.7 nM.

Regarding B11, binding was characterised by a dissociation constant (Kd) of 8.32 nM.

In turn, B12 displayed a Kd of 3.75 nM.

A further test has as its target T1, canine IL-31. As to the kind of experiment: BLI. This is another data set of the same source.
B3 came in with a Kd of 0.815 nM.

Turning to B4, the affinity, expressed as Kd, was 2.49 nM.

For B9, the equilibrium dissociation constant (Kd) turned out to be 11.9 nM.

As for B10, the Kd came out at 12.7 nM.

Regarding B11, binding was put at a Kd of 8.32 nM.

The molecule B12 gave a dissociation constant Kd of 3.75 nM.

In the next test the target is T1, canine IL-31. As to the kind of experiment: BLI. The source holds these as a separate data set.
The molecule B3 showed a dissociation constant Kd of 2.55 nM.

The molecule B13 came in with a Kd of 43.3 nM.

With B10, the Kd was 12.7 nM.

B14 showed a Kd of 113 nM.

For B12, binding was put at a Kd of 3.75 nM.

A further test has as its target T1, canine IL-31. Nature of the test: ELISA. Background: ELISA stands for enzyme-linked immunosorbent assay.
On to B1, for which the EC50 is 0.158 µg/mL.

Consider B2, for which the response was half-maximal at 0.19 µg/mL (EC50).

B4: the EC50 was found to be 0.0928 µg/mL.

For B5, a half-maximal effect (EC50) was put at 0.0934 µg/mL.

B6 returned an EC50 of 0.0978 µg/mL.

With B7, the EC50 is 0.105 µg/mL.

In turn, B8 came in with an EC50 of 0.113 µg/mL.

With B9, the EC50 amounted to 0.103 µg/mL.

In turn, B11 gave an EC50 of 0.102 µg/mL.

Another test addresses T1, canine IL-31. As to the kind of experiment: ELISA. The source holds these as a separate data set.
Turning to B15, the EC50 worked out at 0.00321 µg/mL.

Consider B3, for which the midpoint of the response, the EC50, lay at 0.000915 µg/mL.

Regarding B16, the EC50 was found to be 0.00195 µg/mL.

B17 displayed a 50% effective concentration (EC50) of 0.00208 µg/mL.

For the molecule B18, the EC50 turned out to be 0.00282 µg/mL.

In turn, B13 showed a half-maximal effective concentration (EC50) of 0.000196 µg/mL.

With B10, the EC50 came to 0.0023 µg/mL.

Molecule B14 had an EC50 of 0.000841 µg/mL.

Regarding B12, the EC50 was found to be 0.00179 µg/mL.

With B19, the EC50 was 0.000232 µg/mL.

Another test addresses T1, canine IL-31. As to the kind of experiment: ELISA. The source holds these as a separate data set.
Take B4: the response was half-maximal at 0.094 µg/mL (EC50).

The molecule B9 gave an EC50 of 0.105 µg/mL.

As for B11, it took 0.0985 µg/mL to reach a half-maximal effect (EC50).

As a reminder, the Kd is the equilibrium constant for the complex coming apart. Low readings indicate higher affinity, high ones lower affinity. By EC50 is commonly meant the concentration needed to bring the measured effect to its halfway point. Read a low EC50 as higher potency in that assay.
